The MegaScale stability set (Tsuboyama et al. 2023)

B1: 1ZHC (parent)
chain: HEFRDEISVLKANNPHFDKIFEKHNQLDDDIKTAEQQNASDAEVSHMKKQKLKLKDEIHSMIIEYREK

Variants of: B1
Assay: folding stability dG (cDNA display proteolysis); higher = more stable
Details: PBS, room temperature

Folding stability dG [kcal/mol] of substitutions, site by site:
Q26: F -0.21 | T 0.215 | Y -0.902 | H -0.231 | W -0.614 | R 1.28 | A 0.273 | D 0.206 | V -0.13 | L 0.746 | M -0.061 | E -0.511 | S 0.329 | N 0.184 | I -0.025 | K 1.07 | C -0.127
K23: Q 1.33 | E 1.16 | R 0.933 | T 0.355 | W 1.28 | D 0.146 | A 0.787 | C 0.886 | I 0.915 | L 1.55 | V 0.152 | F -0.019 | Y 1.02 | H 0.386 | N 0.111 | S 0.339 | M 1.58
A12: T 0.659 | W -0.494 | F 0.361 | Q 0.395 | I 0.482 | S 0.404 | R 0.983 | L 0.297 | D 0.188 | P -0.496 | K 1.07 | M 0.648 | C 1.42 | E 0.524 | G 0.257 | Y 0.632 | H 0.398 | V 0.253 | N 0.287
F21: C 0.68 | L 0.554 | H -0.017 | W 1.79 | T -0.186 | S 0.151 | I 0.372 | M 0.443 | Y 0.959 | V 0.263
L27: C 0.277 | F 0.005 | Y -0.311 | V 0.331 | M 0.198 | W -0.576 | I 0.13
I20: C -0.061 | M -0.166 | Y -0.117 | A -0.159 | T -0.398 | L 0.743 | V 0.461
P15: Q 0.122 | S 0.822 | L 0.336 | T 0.292 | W 0.335 | D 0.108 | V 0.356 | F -0.013 | G 0.048 | E 0.365 | C 0.845 | A 0.443 | R 0.029 | N 0.045 | I 0.31 | Y -0.634 | H 0.38 | M 0.07 | K 0.313
H24: Y 2.15 | F 2.06 | R -0.124 | T -0.497 | L 1.68 | C 1.86 | M 1.74 | Q 0.285 | A 0.782 | V 0.939 | W 1.64 | S 0.609 | I 1.22 | K -0.319
H16: Y 1.53 | E 0.338 | N -0.56 | D -0.361 | C 0.932 | R 0.534 | W 1.1 | M -0.101 | L 0.427 | V 0.505 | K 0.147 | G -0.149 | F 0.373 | I 0.609 | S -0.066 | T 0.264 | Q 0.27 | A 0.24
V9: D 0.497 | K 1.37 | L 1.23 | E 0.933 | I 1.06 | F 2.05 | T 0.509 | S 0.824 | Q 1.05 | R 1.01 | M 1.07 | H 1.49 | A 1.16 | N 0.901 | W 2.46 | C 1.91 | G 0.417
I7: N -0.499 | T -0.043 | Y 0.804 | M -0.64 | H -0.334 | W 0.295 | E -0.7 | K -0.95 | R -0.653 | V 0.475 | F 0.109 | L 0.235
D18: Q 1.95 | L 2.42 | H 1.62 | Y 1.95 | K 2.23 | E 1.35 | V 1.68 | N 1.74 | C 1.97 | G 1.16 | R 2.46 | M 2.03 | F 2.03 | A 2.29 | W 1.77 | T 1.35 | I 1.43 | S 1.56
F17: P -0.525 | C -0.409 | R -0.98 | E -0.562 | G -0.943
K19: M 0.78 | I 0.622 | V 0.316 | R 1.15 | Q 0.953 | D 0.823 | Y 1.52 | E 1.1 | S 0.513 | N 0.558 | L 0.515 | W 1.3 | F 1.37 | A 1.13 | H 0.901 | G 0.004 | C 1.32 | T 0.755
K11: M 0.616 | W -0.052 | T -0.058 | L 1.07 | D -0.966 | F 0.176 | G -0.572 | C 1.05 | Y -0.334 | A 0.308 | I 0.839 | P -0.825 | Q 0.591 | V 0.083 | R 1.96 | S 0.169
D29: C 1.17 | L 1.56 | H 1.51 | I 1.44 | F 1.38 | A 1.44 | M 1.5 | K 1.79 | E 1.24 | G 0.771
D28: H 0.757 | T 1.48 | Y 0.56 | F 0.297 | R 0.988 | I 1.13 | M 1.21 | W 0.731 | E 1.18 | Q 0.794 | G 0.786 | V 1.29 | S 0.804 | L 0.945 | K 0.414 | A 1.37
E22: W 0.419 | A 1.32 | S 1.19 | L 1.04 | R 1.57 | D 0.198 | I 0.633 | G 0.979 | Q 1.44 | F 0.764 | V 0.395 | Y 0.584 | H 0.392 | N 1.34 | C 0.723 | K 1.57 | M 1.27 | T 1.26
N13: G 0.346 | D 0.311 | S 0.889 | R 1 | A 0.764 | M 1.33 | W 1.06 | I 1.31 | K 0.586 | F 0.565 | V 0.458 | L 1.44 | H 0.775 | Q 1.22 | T 1.39 | Y 0.635 | E 0.701
S8: Y 0.782 | Q 1.11 | L 1.21 | C 1.67 | P -0.067 | T 1.08 | V 0.784 | K 1.21 | A 1.56 | W 1 | M 1.4 | E 1.32 | R 1.26 | H 0.57 | I 0.988 | F 1 | D 0.953 | N 0.922 | G 0.671
L10: I 0.415 | C 0.629 | G -0.111 | M -0.173 | Y -0.44 | A -0.294 | V -0.406 | W -0.69 | S -0.995
N25: E 0.44 | A 1.03 | I 0.737 | T 0.573 | S 0.766 | K 1.42 | F 0.65 | G -0.067 | C 1.41 | D 0.646 | R 1.59 | L 1.14 | V 0.471 | Q 1.29 | M 0.989 | H 0.533 | W 0.642 | Y 0.277
N14: W 1 | I -0.077 | D 0.835 | M -0.831 | Q -0.421 | Y 0.963 | E -0.24 | V -0.058 | L -0.009 | F 0.397 | H -0.133 | S 0.54 | A -0.402
